From US20250051471A1 (WILLIAM ROBERT ARATHOON LIVING TRUST DATED AUGUST 29 2016, published 2025) come the findings set out here.

Test [1] concerns the target T1, human CD47 on cells (human, UniProt Q08722 19-323).
T1 construct: also called hCD47; CD47 antigen
Description: flow cytometry on human RBC, donor D835. Background: In flow cytometry, cells or beads pass a laser one at a time.
Description: (§1) Antibody binding to human and cynomolgus RBC was assessed by flow cytometry. […] RBC were prepared by centrifugation of whole blood aliquots (0.5 mL) for 5 min at 500xg. Supernatant (plasma) was removed, and RBC washed 3 times in D-PBS+1 mM EDTA. After the final wash, the RBC were resuspended in D-PBS+1 mM EDTA to a final volume of 0.5 mL. Washed RBC were then diluted in flow cytometry buffer (D-PBS+2% FBS+0.05% sodium azide) to 2% and dispensed at 50 pL/well into 96-well plates. An equivalent volume (50 pL) of antibody serially diluted in flow cytometry buffer to 2× final was added to the RBC, and the mixture incubated for 1 hour at room temperature. […] After 20 minutes at room temperature RBC were washed twice, resuspended in flow cytometry buffer and analyzed using an Invitrogen™ Attune™ NXT flow cytometer. […] Left panel, RBC are gated (R1) based on forward and side scatter. Middle panel, a second gate (R2) is applied to eliminate any remaining doublets or aggregates. Right panel, fluorescence of the R2 gated cells is assessed and a final gate (R3) is set using unstained RBC. Cells falling in the R3 gate are defined as “positive” for binding and reported as the percent (of R2 gated cells) that fall in the R3 gate. The results are presented at percent positive which represents the percent of RBC in the R3 gate.

Test [2] addresses T1, human CD47 on cells. Briefly: flow cytometry on human RBC, donor D837.
Description: as §1
Test [3] deals with T2, cynomolgus CD47 on red blood cells (cynomolgus, UniProt A0A5F8AK49 19-323 (rhesus entry)).
T2 construct: whole, on cells; The assay target is the red blood cell; also called cynomolgus Red Blood Cells
Briefly: flow cytometry on cynomolgus RBC, donor Cy744.
Description: as §1

Test [4] has as its target T2, cynomolgus CD47 on red blood cells. Briefly: flow cytometry on cynomolgus RBC, donor Cy745.
Description: as §1
Test [5] shares this target. Description: flow cytometry on cynomolgus RBC, donor Cy747.
Description: as §1
The target of test [6] is T1, human CD47 on cells. Description: flow cytometry on human RBC, donor D834.
Description: as §1
Test [7] addresses T2, cynomolgus CD47 on red blood cells. Briefly: flow cytometry on cynomolgus RBC, donor Cy746.
Description: as §1
Test [8] has as its target T1, human CD47 on cells. Briefly: flow cytometry on red blood cells (sentence follows Table 9, human RBC).
In test [9] the target is T1, human CD47 on cells. Briefly: flow cytometry on human RBC, donor D836.
Description: as §1
In test [10] the target is T3, human ABCB1 on cells (human, UniProt P08183 1-1280).
T3 construct: whole, on cells; also called MDR1; Pgp
Description: receptor occupancy assay on A2780ADR cells, curve 'BiS-Direct Binding' (PE anti-human IgG Fc); the cells carry both antigens, the target is named after the receptor whose free signal falls in the same panel.
Description: Receptor Occupancy (RO) is a measure of the binding of a biotherapeutic to its cellular target(s). Common detection reagents include the drug itself and one or more antibodies binding to the same epitope as the drug. In the present experiment, anti-ABCB1 and anti-CD47 antibodies binding the respective epitopes of the corresponding ABCB1xCD47 bispecific antibodies were used, using the A2780ADR (ovarian) drug resistant cell line. […] Antibodies were prepared by 1:3 serial dilutions in flow cytometry buffer starting from 200 μg/mL (2× final concentration). 50 μL of diluted antibodies were transferred to the cell mixture and the plates incubated at 4° C. for 30 minutes. […] Following two washes with flow cytometry buffer, cells were resuspended in 100 µL of flow cytometry buffer and separated in two samples. […] The two samples were incubated at 4° C. for 30 minutes. Following two washes with flow cytometry buffer, the cells from each sample were resuspended in flow cytometry buffer, plus DAPI, to gate out dead cells, and analyzed using an Attune NXT (ThermoFisher Scientific) flow cytometer.

The target of test [11] is T1, human CD47 on cells. Briefly: flow cytometry, DX5 B1 KO (ABCB1 knock-out) cells, % positive cells.
Test [12] concerns the target T3, human ABCB1 on cells. Description: flow cytometry, DX5 CD47 knock-out cells ('DX5 KT14 KO'), MFI.
Test [13] addresses T3, human ABCB1 on cells. Description: flow cytometry, DX5 WT cells (carry both ABCB1 and CD47), MFI.

B1: 15D3VHhuIgG1DD/KT14KK/B1.89v1.huL1(KV2)hmz (bispecific antibody)
heavy 1: not shown
heavy 2: not shown
light: DIVMTQSPLSLPVTPGEPASISCRSSQTIVHSNGNTYLEWYLQKPGQSPQLLIYKVSKRFSGVPDRFSGSGSGTDFTLKISRVEAEDVGVYYCFQASHFPRTFGQGTKLEIKRTVAAPSVFIFPPSDEQLKSGTASVVCLLNNFYPREAKVQWKVDNALQSGNSQESVTEQDSKDSTYSLSSTLTLSKADYEKHKVYACEVTHQGLSSPVTKSFNRGEC
notes: also called KB1-1421; 15D3VHhuIgG1DD/KT14KK/B1.89v1.huL1(KV2)hmzLC
On to B1, for which the “% Positive” value worked out at 0.4% in the test with human CD47 on cells [1]; 0.4% with human CD47 on cells [2]; 0.7% in test [3]; 2.2% in [4]; 26.5% in [5]; 0.7% with human CD47 on cells [6]. For the same molecule, the “% Positive” value in test [7] was 15.1%; in the test with human CD47 on cells [9], 0.2%. The binding result with human CD47 on cells [8] is “no binding”.

B2: 15D3 hmz HIR2/KT14 KBR1/MRK16v4b (bispecific antibody, IgG1)
heavy 1: EVQLVESGGVVVQPGGSLRLSCAASGFTFSRYTMSWVRQAPGKGLEWVATISSGGGNTYYPDSVKGRFTVSRDNSKNSLYLQMNSLRTEDTALYYCARYGAGDAWFAYWGQGTLVTVSSASTKGPSVFPLAPSSKSTSGGTAALGCLVKDYFPEPVTVSWNSGALTSGVHTFPAVLQSSGLYSLSSVVTVPSSSLGTQTYICNVNHKPSNTKVDKRVEPKSCDKTHTCPPCPAPELLGGPSVFLFPPKPKDTLMISRTPEVTCVVVDVSHEDPEVKFNWYVDGVEVHNAKTKPREEQYNSTYRVVSVLTVLHQDWLNGKEYKCKVSNKALPAPIEKTISKAKGQPREPQVCTLPPSREEMTKNQVSLSCAVKGFYPSDIAVEWESNGQPENNYKTTPPVLDSDGSFVLVSKLTVDKSRWQQGNVFSCSVMHEALHNHYTQKSLSLSPG
heavy 2: not shown
light: DIVMTQTPLSSPVTLGQPASISCRSSQSIVHSTGNTYLEWYQQKPGQPPRLLIYKISNRFSGVPDRFSGSGSGTDFTLKISRVEAEDVGVYYCFQASHFPRTFGQGTKLEIK
notes: Humanized ABCB1 x CD47 IgG1 bispecific with a common light chain; the kappa constant region comes from the general cloning description; not shown: human kappa constant light chain
In general, EC50 (read off the curve) refers to the concentration needed to bring the measured effect to its halfway point. Read a high EC50 (read off the curve) as lower potency in that assay. Regarding B2, the 50% effective concentration (EC50 (read off the curve)) in the test with human ABCB1 on cells [10] is approximately 200 nM; with human ABCB1 on cells [12], approximately 20 nM; with human ABCB1 on cells [13], approximately 10 nM. Besides, the binding result in the test with human CD47 on cells [11] is “binds”.
